Source: the supplement of paper PMC9112550, “Optimization of the antimicrobial peptide Bac7 by deep mutational scanning” (BMC Biology, 2022)

System: Escherichia coli TOP10
Assay: shrunken log2 fold change of peptide-encoding DNA abundance (4.5 h post-induction vs induction); higher = less antimicrobial activity (less host growth inhibition)
Details: time post-induction: 4.5 h; library: site-saturation at positions 5, 18, 19, 20
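Note: peptides expressed intracellularly from a pBAD plasmid library in pooled LB shake-flask culture, induced with 0.3% L-arabinose, DNA abundance read by NGS, three biological replicates, DESeq2 with apeglm shrinkage.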

| Sequence | shrunken log2 fold change |
| --- | --- |
| RRIRLRPPRLPRPRPRPRMWPRP | 0.458 |
| RRIRIRPPRLPRPRPRPNCAPRP | -0.187 |
| RRIRNRPPRLPRPRPRPQAHPRP | -0.163 |
| RRIRYRPPRLPRPRPRPVVWPRP | -0.00976 |
| RRIRLRPPRLPRPRPRPLVYPRP | -0.335 |
| RRIRQRPPRLPRPRPRPNTSPRP | -0.292 |
| RRIRERPPRLPRPRPRPENEPRP | -0.0522 |
| RRIRYRPPRLPRPRPRPHCRPRP | -0.372 |
| RRIRYRPPRLPRPRPRPLQAPRP | -0.057 |
| RRIRERPPRLPRPRPRPWDHPRP | -0.204 |
| RRIRSRPPRLPRPRPRPHDFPRP | -0.0847 |
| RRIRKRPPRLPRPRPRPVWCPRP | -0.0673 |
| RRIRVRPPRLPRPRPRPTGGPRP | 0.18 |
| RRIRNRPPRLPRPRPRPAFWPRP | 0.0558 |
| RRIRSRPPRLPRPRPRPHEGPRP | 0.0242 |
| RRIRDRPPRLPRPRPRPAQDPRP | 0.684 |
| RRIRRRPPRLPRPRPRPAQQPRP | 0.938 |
| RRIRKRPPRLPRPRPRPDTGPRP | -0.0244 |
| RRIRMRPPRLPRPRPRPHFCPRP | -0.0487 |
| RRIRTRPPRLPRPRPRPMIEPRP | -0.244 |
| RRIRDRPPRLPRPRPRPMIRPRP | -0.0188 |
| RRIRLRPPRLPRPRPRPISIPRP | 0.111 |
| RRIRDRPPRLPRPRPRPSFDPRP | -0.0842 |
| RRIRDRPPRLPRPRPRPATNPRP | 0.0922 |
| RRIRLRPPRLPRPRPRPDYEPRP | -0.645 |

| Sequence | shrunken log2 fold change |
| --- | --- |
| RRIRIRPPRLPRPRPRPVNMPRP | -0.103 |
| RRIRNRPPRLPRPRPRPWQWPRP | 0.144 |
| RRIRPRPPRLPRPRPRPDHAPRP | 0.218 |
| RRIRARPPRLPRPRPRPWSTPRP | 0.0839 |
| RRIRNRPPRLPRPRPRPAPSPRP | 0.271 |
| RRIRKRPPRLPRPRPRPYLLPRP | -0.525 |
| RRIRRRPPRLPRPRPRPQWDPRP | 0.0215 |
| RRIRYRPPRLPRPRPRPGKQPRP | -0.0708 |
| RRIRYRPPRLPRPRPRPCAKPRP | -0.374 |
| RRIRCRPPRLPRPRPRPARCPRP | 0.477 |
| RRIRMRPPRLPRPRPRPLPHPRP | 0.407 |
| RRIRMRPPRLPRPRPRPKHPPRP | 0.612 |
| RRIRIRPPRLPRPRPRPCLPPRP | -0.425 |
| RRIRCRPPRLPRPRPRPNPYPRP | -0.44 |
| RRIRWRPPRLPRPRPRPWVTPRP | -0.37 |
| RRIRFRPPRLPRPRPRPSPTPRP | 0.313 |
| RRIRARPPRLPRPRPRPCVNPRP | 0.194 |
| RRIRPRPPRLPRPRPRPSEHPRP | -0.233 |
| RRIRIRPPRLPRPRPRPDGKPRP | -0.000921 |
| RRIRYRPPRLPRPRPRPACGPRP | -0.145 |
| RRIRRRPPRLPRPRPRPPAVPRP | 0.606 |
| RRIRARPPRLPRPRPRPIMGPRP | 0.0143 |
| RRIRKRPPRLPRPRPRPATCPRP | 0.0272 |
| RRIRCRPPRLPRPRPRPSTNPRP | -0.911 |
| RRIRQRPPRLPRPRPRPLYYPRP | 0.614 |

| Sequence | shrunken log2 fold change |
| --- | --- |
| RRIRFRPPRLPRPRPRPMCHPRP | -0.325 |
| RRIRMRPPRLPRPRPRPFRPPRP | -0.16 |
| RRIRTRPPRLPRPRPRPAPFPRP | 0.0263 |
| RRIRPRPPRLPRPRPRPVPNPRP | 0.14 |
| RRIRFRPPRLPRPRPRPYIDPRP | -0.348 |
| RRIRYRPPRLPRPRPRPAKKPRP | 0.0499 |
| RRIRLRPPRLPRPRPRPMIYPRP | -0.0701 |
| RRIRYRPPRLPRPRPRPHREPRP | -0.00804 |
| RRIRERPPRLPRPRPRPAPDPRP | 0.26 |
| RRIRQRPPRLPRPRPRPVGTPRP | -0.0913 |
| RRIRCRPPRLPRPRPRPLLLPRP | -0.265 |
| RRIRHRPPRLPRPRPRPRAVPRP | 0.518 |
| RRIRWRPPRLPRPRPRPIWVPRP | -0.0257 |
| RRIRIRPPRLPRPRPRPMFQPRP | 0.0263 |
| RRIRIRPPRLPRPRPRPDTHPRP | -1.12 |
| RRIRSRPPRLPRPRPRPVNCPRP | -0.247 |
| RRIRVRPPRLPRPRPRPQIFPRP | -0.0538 |
| RRIRRRPPRLPRPRPRPQRPPRP | 0.391 |
| RRIRMRPPRLPRPRPRPDTLPRP | -0.122 |
| RRIRRRPPRLPRPRPRPVNNPRP | -0.12 |
| RRIRYRPPRLPRPRPRPKGPPRP | -0.0132 |
| RRIRCRPPRLPRPRPRPWWLPRP | -0.0111 |
| RRIRWRPPRLPRPRPRPDGPPRP | 0.199 |
| RRIRQRPPRLPRPRPRPYIIPRP | -0.332 |
| RRIRFRPPRLPRPRPRPYYKPRP | -0.207 |

| Sequence | shrunken log2 fold change |
| --- | --- |
| RRIRTRPPRLPRPRPRPQLNPRP | -0.33 |
| RRIRPRPPRLPRPRPRPGANPRP | 0.364 |
| RRIRFRPPRLPRPRPRPSMGPRP | -0.648 |
| RRIRVRPPRLPRPRPRPWCYPRP | -0.366 |
| RRIRGRPPRLPRPRPRPCLMPRP | 0.0827 |
| RRIRHRPPRLPRPRPRPGKLPRP | 0.169 |
| RRIRERPPRLPRPRPRPQAYPRP | -0.131 |
| RRIRIRPPRLPRPRPRPLLMPRP | -0.489 |
| RRIRDRPPRLPRPRPRPQDLPRP | 0.0112 |
| RRIRARPPRLPRPRPRPHHAPRP | 0.0775 |
| RRIRNRPPRLPRPRPRPWMIPRP | -0.252 |
| RRIRFRPPRLPRPRPRPWYHPRP | -0.14 |
| RRIRKRPPRLPRPRPRPYWQPRP | -0.0316 |
| RRIRHRPPRLPRPRPRPFLPPRP | -0.671 |
| RRIRKRPPRLPRPRPRPMWRPRP | 0.481 |
| RRIRGRPPRLPRPRPRPWWCPRP | 0.127 |
| RRIRWRPPRLPRPRPRPAVVPRP | 0.0979 |
| RRIRARPPRLPRPRPRPPATPRP | 1.63 |
| RRIRHRPPRLPRPRPRPQRVPRP | -0.139 |
| RRIRKRPPRLPRPRPRPPYNPRP | -0.149 |
| RRIRWRPPRLPRPRPRPPWYPRP | -0.0946 |
| RRIRARPPRLPRPRPRPSPRPRP | 0.818 |
| RRIRNRPPRLPRPRPRPHGIPRP | -0.154 |
| RRIRWRPPRLPRPRPRPLGYPRP | -0.24 |
| RRIRHRPPRLPRPRPRPCRAPRP | 0.0188 |

| Sequence | shrunken log2 fold change |
| --- | --- |
| RRIRYRPPRLPRPRPRPSIFPRP | -0.654 |
| RRIRIRPPRLPRPRPRPIAAPRP | 0.0481 |
| RRIRERPPRLPRPRPRPWQVPRP | 0.0371 |
| RRIRIRPPRLPRPRPRPCEHPRP | -0.00165 |
| RRIRSRPPRLPRPRPRPQKTPRP | 0.0161 |
| RRIRGRPPRLPRPRPRPKSCPRP | 0.959 |
| RRIRHRPPRLPRPRPRPKLTPRP | -0.0624 |
| RRIRMRPPRLPRPRPRPHMYPRP | -0.568 |
| RRIRLRPPRLPRPRPRPAISPRP | 0.118 |
| RRIRCRPPRLPRPRPRPFDNPRP | -0.437 |
| RRIRMRPPRLPRPRPRPNADPRP | 2.51 |
| RRIRRRPPRLPRPRPRPRWYPRP | 0.092 |
| RRIRSRPPRLPRPRPRPIKCPRP | -0.0332 |
| RRIRERPPRLPRPRPRPARPPRP | 0.626 |
| RRIRSRPPRLPRPRPRPTKDPRP | -0.105 |
| RRIRVRPPRLPRPRPRPTNVPRP | -0.374 |
| RRIRRRPPRLPRPRPRPTPFPRP | 0.632 |
| RRIRRRPPRLPRPRPRPTCEPRP | 0.295 |
| RRIRSRPPRLPRPRPRPSNWPRP | -0.237 |
| RRIRNRPPRLPRPRPRPDAMPRP | -0.0496 |
| RRIRIRPPRLPRPRPRPQHHPRP | -0.875 |
| RRIRYRPPRLPRPRPRPNGFPRP | -0.219 |
| RRIRSRPPRLPRPRPRPFYYPRP | -0.615 |
| RRIRRRPPRLPRPRPRPSVDPRP | 0.168 |
| RRIRARPPRLPRPRPRPWITPRP | -0.0939 |

| Sequence | shrunken log2 fold change |
| --- | --- |
| RRIRMRPPRLPRPRPRPEGHPRP | 2.72 |
| RRIRIRPPRLPRPRPRPEINPRP | -0.993 |
| RRIRQRPPRLPRPRPRPKDDPRP | -0.0913 |
| RRIRPRPPRLPRPRPRPRSSPRP | 0.151 |
| RRIRERPPRLPRPRPRPNMVPRP | -0.61 |
| RRIRDRPPRLPRPRPRPGSIPRP | 0.0264 |
| RRIRIRPPRLPRPRPRPRMDPRP | -0.389 |
| RRIRVRPPRLPRPRPRPWQVPRP | -0.161 |
| RRIRERPPRLPRPRPRPHVMPRP | -0.957 |
| RRIRLRPPRLPRPRPRPTPRPRP | 0.763 |
| RRIRQRPPRLPRPRPRPPLMPRP | 0.179 |
| RRIRMRPPRLPRPRPRPVYIPRP | -0.0842 |
| RRIRVRPPRLPRPRPRPRTRPRP | 0.339 |
| RRIRPRPPRLPRPRPRPRHCPRP | 0.115 |
| RRIRQRPPRLPRPRPRPTKSPRP | 0.00581 |
| RRIRQRPPRLPRPRPRPIVLPRP | -0.132 |
| RRIRQRPPRLPRPRPRPLMFPRP | -0.137 |
| RRIRRRPPRLPRPRPRPYNKPRP | -0.664 |
| RRIRCRPPRLPRPRPRPIVPPRP | -0.298 |
| RRIRERPPRLPRPRPRPNAQPRP | 0.138 |
| RRIRERPPRLPRPRPRPKQWPRP | 0.0081 |
| RRIRQRPPRLPRPRPRPECRPRP | 0.414 |
| RRIRKRPPRLPRPRPRPGAWPRP | 0.364 |
| RRIRVRPPRLPRPRPRPTTIPRP | -0.0865 |
| RRIRWRPPRLPRPRPRPSHVPRP | -0.167 |
